Numbering of substitutions follows the chain as printed. Names and notes keep the numbering of the source.
B1: ECSIT_(CTER-W324A) (domain or fragment)
chain: QDPVELAMFGLRHMEPDLSARVTIYQVPLPKDSTGAADPPQPHIVGIQSPDQQAALARHNPARPVFVEGPFSLWLRNKCVYYHILRADLLPPEEREVEETPEEANLYYPMQLDLEYVRSGWDNYEFDINEVEEGPVFAMCMAGAHDQATMAKWIQGLQETNPTLAQIPVVFRLAGSTRELQTSSAGLEEPPLPEDHQEEDDNLQRQQQGQS
B2: ECSIT_(CTER-Y328A) (domain or fragment)
chain: B1 chain with A104W, Y108A
B3: ECSIT_(CTER-Y327F) (domain or fragment)
chain: B1 chain with A104W, Y107F
B4: ACAD9WT (res. 38-621) (enzyme)
chain: AFAKELFLGKIKKKEVFPFPEVSQDELNEINQFLGPVEKFFTEEVDSRKIDQEGKIPDETLEKLKSLGLFGLQVPEEYGGLGFSNTMYSRLGEIISMDGSITVTLAAHQAIGLKGIILAGTEEQKAKYLPKLASGEHIAAFCLTEPASGSDAASIRSRATLSEDKKHYILNGSKVWITNGGLANIFTVFAKTEVVDSDGSVKDKITAFIVERDFGGVTNGKPEDKLGIRGSNTCEVHFENTKIPVENILGEVGDGFKVAMNILNSGRFSMGSVVAGLLKRLIEMTAEYACTRKQFNKRLSEFGLIQEKFALMAQKAYVMESMTYLTAGMLDQPGFPDCSIEAAMVKVFSSEAAWQCVSEALQILGGLGYTRDYPYERILRDTRILLIFEGTNEILRMYIALTGLQHAGRILTTRIHELKQAKVSTVMDTVGRRLRDSLGRTVDLGLTGNHGVVHPSLADSANKFEENTYCFGRTVETLLLRFGKTIMEEQLVLKRVANILINLYGMTAVLSRASRSIRIGLRNHDHEVLLANTFCVEAYLQNLFSLSQLDKYAPENLDEQIKKVSQQILEKRAYICAHPLDRTC
B5: ACAD9_(S191A) (enzyme)
chain: B4 chain with S154A
B6: ACAD9_(VLCAD) (enzyme)
chain: B4 chain with L364M, L367M, Y369F, T370M
B7: ACAD9_(A184S) (enzyme)
chain: B4 chain with A147S
B8: ACAD9_(A184S/SR194TS) (enzyme)
chain: B4 chain with A147S, S157T, R158S
B9: VLCADWT (res. 72-655) (enzyme)
chain: SFAVGMFKGQLTTDQVFPYPSVLNEEQTQFLKELVEPVSRFFEEVNDPAKNDALEMVEETTWQGLKELGAFGLQVPSELGGVGLCNTQYARLVEIVGMHDLGVGITLGAHQSIGFKGILLFGTKAQKEKYLPKLASGETVAAFCLTEPSSGSDAASIRTSAVPSPCGKYYTLNGSKLWISNGGLADIFTVFAKTPVTDPATGAVKEKITAFVVERGFGGITHGPPEKKMGIKASNTAEVFFDGVRVPSENVLGEVGSGFKVAMHILNNGRFGMAAALAGTMRGIIAKAVDHATNRTQFGEKIHNFGLIQEKLARMVMLQYVTESMAYMVSANMDQGATDFQIEAAISKIFGSEAAWKVTDECIQIMGGMGFMKEPGVERVLRDLRIFRIFEGTNDILRLFVALQGCMDKGKELSGLGSALKNPFGNAGLLLGEAGKQLRRRAGLGSGLSLSGLVHPELSRSGELAVRALEQFATVVEAKLIKHKKGIVNEQFLLQRLADGAIDLYAMVVVLSRASRSLSEGHPTAQHEKMLCDTWCIEAAARIREGMAALQSDPWQQELYRNFKSISKALVERGGVVTSNPLGF
B10: VLCAD_(ACAD9) (enzyme)
chain: B9 chain with M366L, M369L, F371Y, M372T

Legend:
ACAD9WT (res. 38-621) = biological target: B4; assay: mass photometry
dynamic light scattering = biological target: the molecule itself; assay: dynamic light scattering
mass photometry = biological target: the molecule itself; assay: mass photometry

Row | Binder | binding result (ACAD9WT (res. 38-621)) | stoichiometry N (mass photometry) | further results
1 | B1 | binds | – | –
2 | B2 | binds | – | –
3 | B3 | binds | – | –
4 | B4 | – | – | stoichiometry N (dynamic light scattering): 2
5 | B5 | – | 2 | –
6 | B6 | – | 2 | –
7 | B7 | – | – | binding result (dynamic light scattering): binds
8 | B8 | – | 2 | –
9 | B9 | – | 2 | –
10 | B10 | – | 2 | –

Source: publication doi:10.1101/2023.02.23.529646 (bioRxiv, 2023)
